Data taken from paper PMC11969024 (2025).

B1: peptide HD2 (from tick evasin EVA4) / CCL1 (biotinylated, synthetic) (parent complex)
chain 1: EEDDYTAYAPLTCYFT
chain 2: KSMQVPFSRCCFSFAEQEIPLRAILCYRNTSSICSNEGLIFKLKRGKEACALDTVGWVQRHRKMLRHCPSKRK

Variants of: B1

Variant | enrichment
chain 1 D4N | -6.19 log2 (difference from the parental peptide)
chain 1 D4A | -7.31 log2 (difference from the parental peptide)
chain 1 T12A | -2.04 log2 (difference from the parental peptide)
chain 1 T12W | 0.647 log2 (difference from the parental peptide)
chain 1 T12G | -9.53 log2 (difference from the parental peptide)
chain 1 T12N | 1.57 log2 (difference from the parental peptide)
chain 1 D3S | -3.39 log2 (difference from the parental peptide)
chain 1 D3G | -3.36 log2 (difference from the parental peptide)
chain 1 D3W | -3.57 log2 (difference from the parental peptide)
chain 1 D3A | -2.56 log2 (difference from the parental peptide)
chain 1 D3N | -2.85 log2 (difference from the parental peptide)
chain 1 D3V | -3.25 log2 (difference from the parental peptide)
chain 1 T16E | 1.93 log2 (difference from the parental peptide)
chain 1 T16A | 1.5 log2 (difference from the parental peptide)
chain 1 T16S | 0.836 log2 (difference from the parental peptide)
chain 1 T16P | 1.67 log2 (difference from the parental peptide)
chain 1 T16M | 0.0746 log2 (difference from the parental peptide)
chain 1 T16V | -0.26 log2 (difference from the parental peptide)
chain 1 T16G | 1.22 log2 (difference from the parental peptide)
chain 1 T16W | -0.962 log2 (difference from the parental peptide)
chain 1 T16H | -0.232 log2 (difference from the parental peptide)
chain 1 T6D | 4.62 log2 (difference from the parental peptide)
chain 1 T6H | -1.17 log2 (difference from the parental peptide)
chain 1 T6G | 3.41 log2 (difference from the parental peptide)
chain 1 T6Y | -1.82 log2 (difference from the parental peptide)

Variant | enrichment
chain 1 T6P | -5.02 log2 (difference from the parental peptide)
chain 1 T6W | 0.875 log2 (difference from the parental peptide)
chain 1 Y14W | -0.649 log2 (difference from the parental peptide)
chain 1 Y14M | -4.74 log2 (difference from the parental peptide)
chain 1 Y14Q | -5.69 log2 (difference from the parental peptide)
chain 1 E2V | -1.95 log2 (difference from the parental peptide)
chain 1 E2L | -2.22 log2 (difference from the parental peptide)
chain 1 E2S | -2.78 log2 (difference from the parental peptide)
chain 1 A9F | -5.95 log2 (difference from the parental peptide)
chain 1 A9S | -1.71 log2 (difference from the parental peptide)
chain 1 Y5W | 0.92 log2 (difference from the parental peptide)
chain 1 Y5F | -4.11 log2 (difference from the parental peptide)
chain 1 Y5I | -7.45 log2 (difference from the parental peptide)
chain 1 P10M | -6.14 log2 (difference from the parental peptide)
chain 1 P10A | -5.62 log2 (difference from the parental peptide)
chain 1 P10Q | -4.62 log2 (difference from the parental peptide)
chain 1 C13D | -7.39 log2 (difference from the parental peptide)
chain 1 C13V | -4.73 log2 (difference from the parental peptide)
chain 1 C13A | -7.27 log2 (difference from the parental peptide)
chain 1 C13E | -6.35 log2 (difference from the parental peptide)
chain 1 C13P | -6.51 log2 (difference from the parental peptide)
chain 1 C13Y | -5.39 log2 (difference from the parental peptide)
chain 1 A7I | -3.58 log2 (difference from the parental peptide)
chain 1 A7R | 2.51 log2 (difference from the parental peptide)
chain 1 A7E | 0.457 log2 (difference from the parental peptide)

Variant | enrichment
chain 1 E1Y | -0.577 log2 (difference from the parental peptide)
chain 1 E1H | -2.16 log2 (difference from the parental peptide)
chain 1 E1W | -2.32 log2 (difference from the parental peptide)
chain 1 E1D | 2.01 log2 (difference from the parental peptide)
chain 1 E1T | -1.42 log2 (difference from the parental peptide)
chain 1 E1F | -2.45 log2 (difference from the parental peptide)
chain 1 E1L | -1.81 log2 (difference from the parental peptide)
chain 1 E1Q | -1.24 log2 (difference from the parental peptide)
chain 1 E1K | -5.3 log2 (difference from the parental peptide)
chain 1 E1P | -3.07 log2 (difference from the parental peptide)
chain 1 F15E | -0.986 log2 (difference from the parental peptide)
chain 1 F15C | -6.07 log2 (difference from the parental peptide)
chain 1 F15H | 2.15 log2 (difference from the parental peptide)
chain 1 F15V | 2.71 log2 (difference from the parental peptide)
chain 1 F15T | 1.39 log2 (difference from the parental peptide)
chain 1 F15W | -0.244 log2 (difference from the parental peptide)
chain 1 F15L | 2.03 log2 (difference from the parental peptide)
chain 1 Y8P | -6.09 log2 (difference from the parental peptide)
chain 1 L11Y | 0.82 log2 (difference from the parental peptide)
chain 1 L11T | -0.173 log2 (difference from the parental peptide)
chain 1 L11V | 3.09 log2 (difference from the parental peptide)
chain 1 L11F | -4.27 log2 (difference from the parental peptide)
chain 1 L11C | -1.68 log2 (difference from the parental peptide)
chain 1 L11D | -8.31 log2 (difference from the parental peptide)
chain 1 L11I | 2.18 log2 (difference from the parental peptide)
